Results on four molecules are retold here after patent US20150203556A1 (UAB RESEARCH FOUNDATION, published 2015).

The labels stand for the following.
B4: IL-20R1-FC (Fc fusion)
chain: VPCVSGGLPKPANITFLSINMKNVLQWTPPEGLQGVKVTYTVQYFIYGQKKWLNKSECRNINRTYCDLSAETSDYEHQYYAKVKAIWGTKCSKWAESGRFYPFLETQIGPPEVALTTDEKSISVVLTAPEKWKRNPEDLPVSMQQIYSNLKYNVSVLNTKSNRTWSQCVTNHTLVLTWLEPNTLYCVHVESFVPGPPRRAQPSEKQCARTLKDQSSEFKAKGSGGGGPSVFIFPPKIKDVLMISLSPIVTCVVVDVSEDDPDVQISWFVNNVEVHTAQTQTHREDYNSTLRVVSALPIQHQDWMSGKEFKCKVNNKDLPAPIERTISKPKGSVRAPQVYVLPPPCEEMTKKQVTLYCMVTDFMPEDIYVEWTNNGKTELNYKNTEPVLDSDGSYFMYSKLRVEKKNWVERNSYSCSVVHEGLHNHHTTKSFSRTPGKGLEASGGLNDIFEAQKIEWHEGTGHHHHHH
notes: also called IL-20R-fc

The target in one assay is T1, IL-20R1 triple mutant M3 (UniProt Q9UHF4 29-245).
T1 construct: range 29-245; also called IL-20R1 site 3 mutant
T1 sequence (looked up): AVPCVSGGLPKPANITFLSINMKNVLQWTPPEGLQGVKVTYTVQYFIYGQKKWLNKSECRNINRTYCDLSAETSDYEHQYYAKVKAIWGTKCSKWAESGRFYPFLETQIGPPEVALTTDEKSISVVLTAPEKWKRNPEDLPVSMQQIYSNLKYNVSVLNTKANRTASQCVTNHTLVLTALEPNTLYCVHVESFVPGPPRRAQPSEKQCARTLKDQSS
Description: SPR, IL-19 co-injected with M3 over an IL-20R2 coupled Biacore chip. The procedure:
FIGS. 9A-9D show the IL-20 site 3 interface is essential and distinct from other complexes. FIG. 9A is a ribbon diagram showing the site 3 interface between IL-20R1 and IL-20R2. FIG. 9B is a graph showing the importance of the site 3 interface in ternary complex formation. SPR sensograms obtained by injecting cytokines (IL-19 or IL-20, at 250 nM) and/or receptors (IL-20R1 or M3, at 425 nM), as labeled on the figure, over an IL-20R2 coupled biacore chip. Injection of IL-20+IL-20R1 results in a large response consistent with ternary complex formation. However, injection of IL-20+M3, an IL-20R1 site 3 mutant with S190^IL-20R1, W194^IL-20R1, and W207^IL-20R1 mutated to alanine drastically reduces binding due to disruption of ternary complex formation. Similar results are observed for complex formation by IL-19. FIG. 9C is a ribbon diagram of the superposition of the D2 domains of GHR site 1, IL-6R, and IL-20R1. The positions of the D2 domains of GHR site2, GP130, and IL-20R2 are shown, along with a schematic of the differences in their orientations. FIG. 9D is a ribbon diagram showing the putative model of the IL-22/IL-22R1/IL-10R2 complex based on the IL-20 ternary complex structure. […]

The assay “IL-20R1-FC” has as its target B4. Description: SPR co-injection: IL-20 (1000-31.25 nM) with soluble IL-20R2 fixed at 500 nM over IL-20R1-FC surface, 1:1 fit. The procedure: (§1) FIGS. 13A-13D are graphs showing stability of IL-19 and IL-20 ternary complexes. Stability of the ternary complexes were determined by co-injecting IL-19+soluble IL-20R2 (FIGS. 13B and 13D), or IL-20+soluble IL-20R2 (FIGS. 13A and 13C), over an IL-20R1-FC coupled surface. The concentration of soluble IL-20R2 in these experiments was fixed at 500 nM. IL-19 and IL-20 concentrations varied from 1000 nM to 31.25 nM (2 fold dilutions). IL-19/soluble IL-20R2 and IL-20/IL-20R2 were also injected over an IL-22R1 coupled surface. The SPR sensorgrams are labeled as injected proteins, followed by a semicolon (:), then the protein coupled to the chip surface, IL-20R1 or IL-22R1. All sensograms yielding binding responses were fit to 1:1 binding models.
(§2) Surface Plasmon Resonance Experiments SPR experiments were performed on Biacore T-100, and T-200, (GE healthcare, Waukesha, Wis.) systems. Soluble IL-20R2 was amine coupled (100-130 RU) to CM5 research grade biacore chips in 10 mM sodium acetate, pH 5.0. IL-20R1-FC and IL-20R2-FC were coupled (60-120 RU) to CM5 chips using an anti-FC Ab coupling kit using the manufacturer's instructions (GE healthcare, Waukesha, Wis.). All binding experiments were performed in running buffer consisting of 10 mM Hepes, pH 7.4, 150 mM NaCl, 0.04% P20, and 0.1 mg/mL bovine serum albumin (Sigma, St. Louis, Mo.). No regeneration was performed between sample injections on IL-20R2 amine-coupled surfaces. IL-20R1-FC and IL-20R2-FC surfaces were regenerated after each sample injection with a 3-minute injection of glycine, pH 1.7. Soluble proteins were injected for 75-90 seconds (30 uL/min) over the surfaces, and the dissociation phase was followed for 75-120 seconds depending on the stability of the complex being analyzed. Where possible, the resultant sensorgrams were fit to 1:1 binding models using Biacore T-200 evaluation software version 1.

For a further assay, the target named is T2, IL-22R1 (sIL-22R1DDQ) (Homo sapiens (Human), UniProt Q8N6P7 16-226, limits assumed).
T2 chain: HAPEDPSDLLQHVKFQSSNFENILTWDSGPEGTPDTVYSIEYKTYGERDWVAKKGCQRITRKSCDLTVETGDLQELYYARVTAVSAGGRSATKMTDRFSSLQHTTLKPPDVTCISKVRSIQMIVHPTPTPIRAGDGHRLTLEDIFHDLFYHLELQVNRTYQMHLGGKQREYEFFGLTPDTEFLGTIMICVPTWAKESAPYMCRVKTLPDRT
Description: SPR co-injection: IL-20 (1000-31.25 nM) with soluble IL-20R2 fixed at 500 nM over IL-22R1 coupled surface, 1:1 fit. Here is the method: as §1, §2

Assay [1] addresses T3, IL-19 (human, UniProt Q9UHD0 25-177).
T3 construct: also called Interleukin-19; IL-19a
T3 sequence: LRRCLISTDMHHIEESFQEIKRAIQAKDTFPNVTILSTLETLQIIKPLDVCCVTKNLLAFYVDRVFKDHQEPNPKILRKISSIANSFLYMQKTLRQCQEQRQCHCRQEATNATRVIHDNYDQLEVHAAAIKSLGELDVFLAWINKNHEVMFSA
As to the kind of experiment: SPR (Biacore), IL-19 over amine coupled IL-20R2, 1:1 fit. Here is the method: (§3) FIGS. 12A-12H are graphs showing IL19/IL-20 receptor interactions and complex stability. SPR sensorgrams, data fits (black lines), KD values, and residual errors obtained for complexes described at the top of each panel. Panels are labeled as injected soluble proteins, followed by a semicolon (:), then the protein coupled to chip surface, IL-20R1 or IL-20R2. FIGS. 12A and 12B show injection of IL-19 and IL-20 (max conc.=10 μM, 2 fold diluted to 0.625 μM) over IL-20R1. FIGS. 12C and 12D show injection of IL-19 (max conc.=500 nM, 2-fold diluted to 3.91 nM) or IL-20 (max conc.=2000 nM, 2-fold diluted to 62.5 nM) over IL-20R2. FIGS. 12E-12H show IL-19 and IL-20 (fixed at 250 nM) mixed with different concentrations of IL-20R1, or IL-22R1, (max conc.=1000 nM, 2-fold diluted to 7.81 nM) and injected over IL-20R2. To estimate R1 chain affinity/complex stability, the contribution of the ligand was removed by using the 250 nM IL-19, or IL-20, sensorgram as the blank subtraction. All sensorgrams were fit to 1:1 binding models.
as §2, with “Where possible, the resultant sensorgrams were fit to 1:1 binding models using Biacore T-200 evaluation software version 1.” left out
Background: Surface plasmon resonance follows binding to a sensor surface in real time, without labels.

In assay [2] the target is T4, IL-20 (human, UniProt Q9NYY1 25-176).
T4 construct: The crystal model holds residues 24-176; also called Interleukin-20; IL-20b
T4 sequence: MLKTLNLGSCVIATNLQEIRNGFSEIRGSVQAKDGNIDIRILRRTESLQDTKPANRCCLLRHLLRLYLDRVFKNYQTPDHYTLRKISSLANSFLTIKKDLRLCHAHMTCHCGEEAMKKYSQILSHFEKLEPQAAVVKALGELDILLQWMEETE
As to the kind of experiment: SPR (Biacore), IL-20 over amine coupled IL-20R2, equilibrium affinity (no rate constants).

For assay [3], the target named is T4, IL-20. Description: SPR, site KD as listed in Table 5.
The target of assay [4] is T4, IL-20. Description: SPR (Biacore), IL-20 (10-0.625 µM) over IL-20R1-fc captured by anti-FC Ab. The procedure:
as §3
(§4) Surface Plasmon Resonance Experiments SPR experiments were performed on Biacore T-100, and T-200, (GE healthcare, Waukesha, Wis.) systems. […] Soluble proteins were injected for 75-90 seconds (30 uL/min) over the surfaces, and the dissociation phase was followed for 75-120 seconds depending on the stability of the complex being analyzed. […]

In assay [5] the target is T3, IL-19. As to the kind of experiment: SPR, IL-19 (10 µM, 2-fold diluted to 0.625 µM) injected over IL-20R1 (IL-20R1-fc in Table 4). The procedure: as §3, §4

B1: IL-19/IL-20R2 binary complex (other)
chain 1: LRRCLISTDMHHIEESFQEIKRAIQAKDTFPNVTILSTLETLQIIKPLDVCCVTKNLLAFYVDRVFKDHQEPNPKILRKISSIANSFLYMQKTLRQCQEQRQCHCRQEATNATRVIHDNYDQLEVHAAAIKSLGELDVFLAWINKNHEVMFSA
chain 2: DEVAILPAPQQLSVLSTNMKHLLMWSPVIAPGETVYYSVEYQGEYESLYTSHIWIPSSWCSLTEGPECDVTDDITATVPYNLRVRATLGSQTSAWSILKHPFNRQSTILTRPGMEITKDGFHLVIELEDLGPQFEFLVAYWRREPGAEEHVKMVRSGGIPVHLETMEPGAAYCVKAQTFVKAIGRYSAFSQTECVEVQGEA
notes: IL-19 with IL-20R2 that carries no FC: amine coupled on the chip, or soluble; also called IL-19+soluble IL-20R2
Consider B1, for which the binding result in the assay with IL-20R1 triple mutant M3 is “no binding (tested: 425 nM M3 with 250 nM IL-19)”.

B2: IL-20/IL-20R2 binary complex (other)
chain 1: MLKTLNLGSCVIATNLQEIRNGFSEIRGSVQAKDGNIDIRILRRTESLQDTKPANRCCLLRHLLRLYLDRVFKNYQTPDHYTLRKISSLANSFLTIKKDLRLCHAHMTCHCGEEAMKKYSQILSHFEKLEPQAAVVKALGELDILLQWMEETE
chain 2: DEVAILPAPQQLSVLSTNMKHLLMWSPVIAPGETVYYSVEYQGEYESLYTSHIWIPSSWCSLTEGPECDVTDDITATVPYNLRVRATLGSQTSAWSILKHPFNRQSTILTRPGMEITKDGFHLVIELEDLGPQFEFLVAYWRREPGAEEHVKMVRSGGIPVHLETMEPGAAYCVKAQTFVKAIGRYSAFSQTECVEVQGEA
notes: also called 20 + 20R2; IL-20+soluble IL-20R2
As a reminder, the Kd is the free concentration of one partner at which half of the binding sites on the other are occupied at equilibrium, for simple one-to-one binding. The low end stands for a tighter complex, the high end for a looser complex. What is called koff is the first-order rate constant of dissociation. The kon is the rate constant with which the complex forms. Take B2: in the assay with IL-20R1-FC, binding was characterised by a dissociation constant (Kd) of 1070 nM, the koff amounted to 0.0168 s⁻¹ and the kon turned out to be 15700 M⁻¹ s⁻¹. In the assay with IL-22R1 (sIL-22R1DDQ), this molecule displayed a Kd of 1160 nM, a koff of 0.238 s⁻¹ and a kon of 205000 M⁻¹ s⁻¹.

B3: soluble IL-20R2 (receptor)
chain: DEVAILPAPQQLSVLSTNMKHLLMWSPVIAPGETVYYSVEYQGEYESLYTSHIWIPSSWCSLTEGPECDVTDDITATVPYNLRVRATLGSQTSAWSILKHPFNRQSTILTRPGMEITKDGFHLVIELEDLGPQFEFLVAYWRREPGAEEHVKMVRSGGIPVHLETMEPGAAYCVKAQTFVKAIGRYSAFSQTECVEVQGEA
notes: also called IL-20R2* (amine coupled IL-20R2)
In the assay with IL-19 [1], B3 yielded a Kd of 36.3 nM, a koff of 0.0398 s⁻¹ and an on-rate (kon) of 1.1e+06 M⁻¹ s⁻¹. In addition, the Kd with IL-20 [2] came to 870 nM.

Take B4: the Kd in the assay with IL-20 [3] and with IL-20 [4] was roughly 9000 nM in each case. The binding result with IL-19 [5] is reported as “no binding (tested: 10 µM)”.
